B1: GPC3-SL-mCD3ε (protein)
chain: EVQLVQSGAEVKKPGASVKVSCKASGYTFSDYEMHWVRQAPGQGLEWMGAIHPGSGDTAYNQRFKGRVTITADKSTSTAYMELSSLRSEDTAVYYCARFYSYAYWGQGTLVTVSAGGGGSGGGGSGGGGSDIVMTQTPLSLPVTPGEPASISCRSSQSLVHSNGNTYLQWYLQKPGQSPQLLIYKVSNRFSGVPDRFSGSGSGTDFTLKISRVEAEDVGVYYCSQSIYVPYTFGQGTKLEIKRAAAGGGGSGGGGSGGGGSLEDDAENIEYKVSISGTSVELTCPLDSDENLKWEKNGQELPQKHDKHLVLQDFSEVEDSGYYVCYTPASNKNTYLYLKARVCEYCVEVDLTAVAIIIIVDICITLGLLMVIYYWSKNRKAKAKPVTRGTGAGSRPRGQNKERPPPVPNPDYEPIRKGQRDLYSGLNQRAV
B2: GPC3-SL-mCD3ε-F2A-mCCL21b (protein)
chain: B1 chain
B3: GPC3-SL-mCD3ε-F2A-mIL7-P2A-mCCL21b (protein)
chain: B1 chain
B4: GPC3-SL-mCD3ε-NFAT-mIL12 (protein)
chain: B1 chain
B5: GPC3-SL-mCD3ε-F2A-mRunx3 (protein)
chain: B1 chain

The binders below were run against mouse GPC3 protein (mouse) (UniProt Q8CFZ4) (assay: cell-based or functional assay).
UniProt Q8CFZ4, sequence (Q8CFZ4 25-579 limits assumed): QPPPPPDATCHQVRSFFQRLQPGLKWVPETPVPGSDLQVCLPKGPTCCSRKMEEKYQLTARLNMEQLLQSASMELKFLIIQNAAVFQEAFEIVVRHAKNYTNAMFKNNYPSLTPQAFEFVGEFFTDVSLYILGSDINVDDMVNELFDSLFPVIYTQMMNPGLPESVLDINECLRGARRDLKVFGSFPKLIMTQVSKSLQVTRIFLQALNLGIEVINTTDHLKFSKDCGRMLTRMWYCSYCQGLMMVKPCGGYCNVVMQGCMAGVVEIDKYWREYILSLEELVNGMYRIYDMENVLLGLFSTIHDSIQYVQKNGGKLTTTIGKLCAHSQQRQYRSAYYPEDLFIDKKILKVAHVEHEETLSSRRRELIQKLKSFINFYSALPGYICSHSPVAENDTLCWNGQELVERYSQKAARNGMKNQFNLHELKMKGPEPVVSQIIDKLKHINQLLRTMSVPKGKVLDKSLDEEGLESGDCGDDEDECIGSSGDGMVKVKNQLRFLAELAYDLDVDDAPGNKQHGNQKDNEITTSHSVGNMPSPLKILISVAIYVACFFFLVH

Going from B1 to B2, the cytotoxicity to Hepa 1-6 GPC3 cells, effector target ratio 1:1, 18 h (CytoTox 96) rises from 70.7% to 73.2%.

First: B3
Second: B4
The cytotoxicity to Hepa 1-6 GPC3 cells, effector target ratio 1:1, 18 h (CytoTox 96) of the first is lower: 73.4% for the first, 91.5% for the second.

B5 showed a cytotoxicity to Hepa 1-6 GPC3 cells, effector target ratio 1:1, 18 h (CytoTox 96) of 82.2%.

— patent US20220127372A1
